Assays:
[1] = biological target: T1, synthetic peptide of human podoplanin from position 69 to position 88 (human); experiment: ELISA on synthetic peptides
T1 peptide: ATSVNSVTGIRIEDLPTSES

[2] = biological target: T2, human podoplanin on glioblastoma cells LN319 (human, UniProt Q86YL7 23-162); experiment: flow cytometry on LN319 cells, antibody 1 µg/ml
T2 construct: Podoplanin of the LN319 cell line itself; also called LN 319 cells; podoplanin expression strain
T2 chain: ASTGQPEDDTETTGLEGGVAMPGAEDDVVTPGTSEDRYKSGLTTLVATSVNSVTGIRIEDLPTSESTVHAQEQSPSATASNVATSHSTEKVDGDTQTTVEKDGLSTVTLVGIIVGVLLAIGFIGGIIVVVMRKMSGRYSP
Experimental: (§1) Reactivity of the anti-podoplanin antibodies (LpMab-2, LpMab-3, LpMab-7, and LpMab-9) with a podoplanin expression strain was studied by flow cytometry. […] The reaction products were each reacted further with an anti-mouse IgG-FITC antibody (product of Life Technologies) at 4° C. for 30 minutes. As a negative control, only the secondary antibody of each of them was used. Fluorescence intensity was measured using EC800 (product of Sony).

[3] = biological target: T3, human podoplanin on mesothelial cells Met-5A (human, UniProt Q86YL7 23-162); experiment: flow cytometry on Met-5A cells, antibody 1 µg/ml
T3 construct: Podoplanin of the cell line itself; also called normal mesothelial cells; normal epithelial cell line (Met-5A)
T3 chain: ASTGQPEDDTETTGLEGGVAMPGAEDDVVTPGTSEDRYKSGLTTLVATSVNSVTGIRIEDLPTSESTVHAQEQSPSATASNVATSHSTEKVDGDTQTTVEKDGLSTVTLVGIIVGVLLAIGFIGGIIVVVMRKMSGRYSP
Experimental: as §1

[4] = biological target: T4, human podoplanin on lung squamous cell cancer tissue (paraffin section) (human, UniProt Q86YL7 23-162); experiment: immunohistostaining of paraffin sections (FIG. 8)
T4 chain: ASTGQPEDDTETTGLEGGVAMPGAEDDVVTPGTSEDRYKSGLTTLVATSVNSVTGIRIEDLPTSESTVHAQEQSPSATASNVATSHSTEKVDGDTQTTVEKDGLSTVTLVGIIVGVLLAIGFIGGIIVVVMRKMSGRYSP
Experimental: (§2) Various paraffin sections were deparaffined in xylene and ethanol solutions. Antigen activation operation was not performed. The endogenous peroxidase was inactivated with 3% H₂O₂. Blocking was performed at room temperature for 10 minutes with SuperBlock (product of Thermo Fisher) and the primary antibody was reacted at room temperature for one hour. After amplification using a LSAB kit (product of Dako), color was developed using DAB (product of Dako).
(§3) LpMab-23 is a cancer cell-specific antibody. […] LpMab-7 used as a positive control reacted with both cancer cells and lymphatic epithelial cells.

[5] = biological target: T5, human podoplanin on esophageal squamous cell cancer tissue (paraffin section) (human, UniProt Q86YL7 23-162); experiment: immunohistostaining of paraffin sections (FIG. 8)
T5 construct: also called esophagus squamous cell cancer
T5 chain: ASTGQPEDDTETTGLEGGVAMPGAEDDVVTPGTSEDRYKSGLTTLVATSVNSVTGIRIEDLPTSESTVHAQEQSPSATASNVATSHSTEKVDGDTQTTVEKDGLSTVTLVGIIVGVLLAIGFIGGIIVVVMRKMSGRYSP
Experimental: as §2, §3

[6] = biological target: T6, human podoplanin on glioblastoma tissue (paraffin section) (human, UniProt Q86YL7 23-162); experiment: immunohistostaining of paraffin sections (FIG. 8)
T6 chain: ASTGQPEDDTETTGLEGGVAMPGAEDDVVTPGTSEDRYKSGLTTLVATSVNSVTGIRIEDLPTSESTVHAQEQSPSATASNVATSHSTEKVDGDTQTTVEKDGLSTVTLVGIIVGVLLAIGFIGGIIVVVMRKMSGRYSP
Experimental: as §2, §3

[7] = biological target: T7, human podoplanin on seminoma tissue (paraffin section) (human, UniProt Q86YL7 23-162); experiment: immunohistostaining of paraffin sections (FIG. 8)
T7 chain: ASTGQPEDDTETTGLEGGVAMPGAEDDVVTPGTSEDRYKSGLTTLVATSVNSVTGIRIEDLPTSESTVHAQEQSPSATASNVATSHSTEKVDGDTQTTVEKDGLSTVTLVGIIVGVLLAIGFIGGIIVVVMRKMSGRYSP
Experimental: as §2, §3

[8] = biological target: T8, human podoplanin on renal epithelial cells HEK-293T (human, UniProt Q86YL7 23-162); experiment: flow cytometry on HEK-293T cells, antibody 1 µg/ml
T8 construct: Podoplanin of the cell line itself; also called normal renal epithelial cells
T8 chain: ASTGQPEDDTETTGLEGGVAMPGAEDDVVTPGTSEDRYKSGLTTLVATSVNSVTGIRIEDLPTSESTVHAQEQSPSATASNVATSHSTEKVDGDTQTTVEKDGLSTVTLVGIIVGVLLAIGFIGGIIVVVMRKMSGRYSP
Experimental: as §1

[9] = biological target: T9, human podoplanin on oral cancer cells HSC3/hPDPN (human, UniProt Q86YL7 23-162); experiment: flow cytometry on HSC3/hPDPN cells, antibody 1 µg/ml
T9 construct: Podoplanin gene expression strain; also called oral cancer cell line
T9 chain: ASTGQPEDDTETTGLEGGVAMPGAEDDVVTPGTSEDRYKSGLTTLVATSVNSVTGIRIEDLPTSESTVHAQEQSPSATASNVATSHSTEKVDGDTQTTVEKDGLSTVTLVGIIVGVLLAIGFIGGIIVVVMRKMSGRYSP
Experimental: as §1

[10] = biological target: T10, human podoplanin on malignant mesothelioma cells Y-MESO14-hPDPN (human, UniProt Q86YL7 23-162); experiment: flow cytometry on Y-MESO14-hPDPN cells, antibody 1 µg/ml
T10 construct: Podoplanin gene expression strain
T10 chain: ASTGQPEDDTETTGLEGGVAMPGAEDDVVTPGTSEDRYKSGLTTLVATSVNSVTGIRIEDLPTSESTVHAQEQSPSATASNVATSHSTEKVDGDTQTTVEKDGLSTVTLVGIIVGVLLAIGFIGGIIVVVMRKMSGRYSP
Experimental: as §1

[11] = biological target: T11, human podoplanin on lung squamous cell cancer cells RERF-LC-AI-hPDPN (human, UniProt Q86YL7 23-162); experiment: flow cytometry on RERF-LC-AI-hPDPN cells, antibody 1 µg/ml
T11 construct: Podoplanin gene expression strain
T11 chain: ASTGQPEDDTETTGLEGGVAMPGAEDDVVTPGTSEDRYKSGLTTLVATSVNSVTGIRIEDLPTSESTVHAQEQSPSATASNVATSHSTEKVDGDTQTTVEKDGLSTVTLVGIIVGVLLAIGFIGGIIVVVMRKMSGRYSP
Experimental: as §1

[12] = biological target: T12, human podoplanin on lymphatic endothelial cells (human, UniProt Q86YL7 23-162); experiment: flow cytometry on lymphatic endothelial cells, antibody 1 µg/ml
T12 construct: Normal cells; cultured cells in flow cytometry, cells in paraffin sections in immunohistostaining (see assay of each row); also called lymphatic epithelial cells; lymphatic cells
T12 chain: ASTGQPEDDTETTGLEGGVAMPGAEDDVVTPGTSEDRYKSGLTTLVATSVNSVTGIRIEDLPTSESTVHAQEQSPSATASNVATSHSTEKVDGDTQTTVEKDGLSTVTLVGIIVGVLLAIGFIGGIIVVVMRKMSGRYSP
Experimental: as §1

[13] = biological target: T13, human podoplanin on normal alveolar epithelial cells (paraffin section) (human, UniProt Q86YL7 23-162); experiment: immunohistostaining of a normal lung paraffin section (FIG. 4D)
T13 construct: also called normal lung
T13 chain: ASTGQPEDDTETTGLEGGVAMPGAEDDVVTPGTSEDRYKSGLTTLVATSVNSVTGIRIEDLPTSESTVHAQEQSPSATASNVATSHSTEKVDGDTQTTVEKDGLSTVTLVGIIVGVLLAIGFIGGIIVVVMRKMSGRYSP
Experimental: (§4) Various paraffin sections were deparaffined in xylene and ethanol solutions. The resulting sections were autoclaved for 20 minutes using an antigen activator reagent (citrate buffer (pH 6.0): product of Dako). Endogenous peroxidase was inactivated with 3% H₂O₂. After blocking at room temperature for 10 minutes with SuperBlock (product of Thermo Fisher), a primary antibody was reacted at room temperature for one hour. After amplification using a LSAB kit (product of Dako), color was developed using DAB (product of Dako).
(§5) LpMab-2 is a tumor-specific antibody. […] LpMab-7 reacted with both (FIG. 4B), which coincided with the data of flow cytometry. LpMab-2 reacted with neither normal alveolar epithelial cells nor lymphatic cells (FIG. 4C). The LpMab-7 on the other hand stained alveolar epithelial cells and lymphatic vessel (FIG. 4D).

[14] = biological target: T14, human podoplanin on testicular tumor cells (paraffin section) (human, UniProt Q86YL7 23-162); experiment: immunohistostaining of a testicular tumor paraffin section (FIG. 4B)
T14 construct: also called tumor portion of testicular tumor
T14 chain: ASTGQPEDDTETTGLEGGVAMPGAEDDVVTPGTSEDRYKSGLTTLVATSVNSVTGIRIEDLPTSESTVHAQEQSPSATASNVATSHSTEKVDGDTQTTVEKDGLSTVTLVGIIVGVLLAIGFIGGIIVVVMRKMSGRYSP
Experimental: as §4, §5

[15] = biological target: T2, human podoplanin on glioblastoma cells …; experiment: flow cytometry on LN319 cells, culture supernatant

Measured: binding result

B1: LpMab-7 (antibody)
heavy: DVQLVESGGGLVQPGGSRKLSCAASGFTFSGFGMHWVRQAPEKGLEWVAYISSVSSRIYYADTVKGRFTISRDNPKNTLFLQMTSLRSEDTAMYYCAREQTGPAWFAYWGQGTLVTVSAAKTTPPSVYPLAPGSAAQTNSMVTLGCLVKGYFPEPVTVTWNSGSLSSGVHTFPAVLQSDLYTLSSSVTVPSSTWPSETVTCNVAHPASSTKVDKKIVPRDCGCKPCICTVPEVSSVFIFPPKPKDVLTITLTPKVTCVVVDISKDDPEVQFSWFVDDVEVHTAQTQPREEQFNSTFRSVSELPIMHQDWLNGKEFKCRVNSAAFPAPIEKTISKTKGRPKAPQVYTIPPPKEQMAKDKVSLTCMITDFFPEDITVEWQWNGQPAENYKNTQPIMDTDGSYFVYSKLNVQKSNWEAGNTFTCSVLHEGLHNHHTEKSLSHSPGK
light: DVLMTQTPLSLPVSLGDQASISCRSSRNIVQSTGNTYLEWYLQKPGQSPKLLIFKVSNRFSGVPDRFSGSGSGTDFTLKISRVEAEDLGVYYCFQGSHVPPWTFGGGTKLEIKRADAAPTVSIFPPSSEQLTSGGASVVCFLNNFYPKDINVKWKIDGSERQNGVLNSWTDQDSKDSTYSMSSTLTLTKDEYERHNSYTCEATHKTSTSPIVKSFNRNEC
notes: Mouse IgG1, kappa, from hybridoma; Entries may hold the signal peptide
binds: [1] | [2] | [3] | [4] | [5] | [6] | [7] | [8] | [9] | [10] | [11] | [12] | [13] | [14]

B2: rLpMab-7 (antibody, mouse IgG1, kappa)
heavy: DVQLVESGGGLVQPGGSRKLSCAASGFTFSGFGMHWVRQAPEKGLEWVAYISSVSSRIYYADTVKGRFTISRDNPKNTLFLQMTSLRSEDTAMYYCAREQTGPAWFAYWGQGTLVTVSAAKTTPPSVYPLAPGSAAQTNSMVTLGCLVKGYFPEPVTVTWNSGSLSSGVHTFPAVLQSDLYTLSSSVTVPSSTWPSETVTCNVAHPASSTKVDKKIVPRDCGCKPCICTVPEVSSVFIFPPKPKDVLTITLTPKVTCVVVDISKDDPEVQFSWFVDDVEVHTAQTQPREEQFNSTFRSVSELPIMHQDWLNGKEFKCRVNSAAFPAPIEKTISKTKGRPKAPQVYTIPPPKEQMAKDKVSLTCMITDFFPEDITVEWQWNGQPAENYKNTQPIMDTDGSYFVYSKLNVQKSNWEAGNTFTCSVLHEGLHNHHTEKSLSHSPGK
light: DVLMTQTPLSLPVSLGDQASISCRSSRNIVQSTGNTYLEWYLQKPGQSPKLLIFKVSNRFSGVPDRFSGSGSGTDFTLKISRVEAEDLGVYYCFQGSHVPPWTFGGGTKLEIKRADAAPTVSIFPPSSEQLTSGGASVVCFLNNFYPKDINVKWKIDGSERQNGVLNSWTDQDSKDSTYSMSSTLTLTKDEYERHNSYTCEATHKTSTSPIVKSFNRNEC
notes: Full-length H and L chain of LpMab-7 expressed in CHO cells; also called recombinant LpMab-7
binds: [15]

B3: chLpMab-7 (antibody, human IgG1, kappa)
heavy: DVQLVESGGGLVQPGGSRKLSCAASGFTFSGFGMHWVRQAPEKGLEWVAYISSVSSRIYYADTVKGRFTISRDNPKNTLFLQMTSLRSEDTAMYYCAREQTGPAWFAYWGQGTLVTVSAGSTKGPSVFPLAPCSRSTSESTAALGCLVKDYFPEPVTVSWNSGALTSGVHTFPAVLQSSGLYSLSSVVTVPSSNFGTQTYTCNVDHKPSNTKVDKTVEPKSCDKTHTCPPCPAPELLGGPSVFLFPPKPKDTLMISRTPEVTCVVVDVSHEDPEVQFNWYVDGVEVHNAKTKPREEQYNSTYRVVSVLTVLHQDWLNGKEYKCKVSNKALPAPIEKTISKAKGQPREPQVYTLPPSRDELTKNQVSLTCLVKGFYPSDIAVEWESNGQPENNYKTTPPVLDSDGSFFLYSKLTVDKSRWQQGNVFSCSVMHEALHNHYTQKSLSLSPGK
light: DVLMTQTPLSLPVSLGDQASISCRSSRNIVQSTGNTYLEWYLQKPGQSPKLLIFKVSNRFSGVPDRFSGSGSGTDFTLKISRVEAEDLGVYYCFQGSHVPPWTFGGGTKLEIKRADAAPTVSIFPPSSEQLTSGGASVVCFLNNFYPKDINVKWKIDGSERQNGVLNSWTDQDSKDSTYSMSSTLTLTKDEYERHNSYTCEATHKTSTSPIVKSFNRNEC
notes: culture supernatant used; also called human chimeric LpMab-7
binds: [15]

B4: chLpMab-23 (antibody, human IgG1, kappa, V domains shown)
VH: QVQLKESGPGLVAPSQSLSITCTVSGFSVTSYGIHWVRQPPGKGLEWLGVIWTSGNTNYNSALMSRLSISRDNSKSQVFLKMNSLQTDDTAMYYCAREDYYGYAMDYWGQGTSVTVSS
VL: not shown
notes: Variable regions of LpMab-23 with human IgG1 constant region; Culture supernatant used; also called human chimeric LpMab-23 antibody
binds: [15]

B5: chLpMab-3 (antibody, human IgG1, kappa, V domains shown)
VH: EVQLVESGGGLVKPGGSLKLSCAASGFTFTRYAMSWVRQTPEKRLEWVATISNGGSYTYYLDSVKGRFTLSRDNAKNTLYLQMSSLRSEDTAMYYCARREGGQAGPAWFVYWGQGTLVTVSA
VL: DIVMTQSPSSLAMSVGQKVTMNCKSSQSLLNSSNQKNYLAWYQQKPGQSPKLLVYFASTRESGVPDRFIGSGSGTDFTLTISSAQAEDLADYFCQQYYSTPPTFGAGTKLELKR
notes: culture supernatant used; also called human chimeric LpMab-3
binds: [15]

Source: patent US20160347834A1 (ZENOAQ RESOURCE, published 2016)
